Laboratory results: patent US20220073643A1 (NANJING GENSCRIPT BIOTECH, published 2022)
Substitutions are numbered along the chain they refer to.

B1: 406G3C4 (antibody, V domains shown)
VH: EIQLQQSGPELMKPGASVRISCKASGYSFISYYIYWVKQSHGKGLEWIGYIDPFNGNTNYNQKFKGKATLTVDRSSSTAYIHLNSLTSEDSAVYYCAIVNGYGRGAMDYWGQGTSVTVSS
VL: QIVLTQSPAIMSASPGEKVTMTCSASSSISYMHWYQQKSGTSPKRWIYDTSKLASGVPARFSGSGSGTSYSLTISSMEAEDAATYYCQQWSSNPLTFGDGTKLELK
B2: 417A6F11 (antibody, V domains shown)
VH: EVQLQQSGPELVKPGASMKISCKASGYSFTGYTMNWVKQSHGKNLEWIGLINPYNGGTSYNQKFKGKATLTVDKSSSTAYMELLSLTSEDSAVYYCARGDYWGQGTTLTVSS
VL: DIVMTQSPSSLTVTAGEKVTMSCKSSQSLLNSGNQKNYLTWYQQKPGQPPKLLIYWASTRESGVPDRFTGSGSGTDFTLTISSVQAEDLAVYYCQNDYSYPTFGAGTKLELK
B3: 406E1H7 (antibody, V domains shown)
VH: DVQLVESGGGLVQPGGSRKLSCAASGFTFSGFGMHWIRQTPEKGLEWVAYISSGSRPIYYADTVQGRFTISRDNPKNTLFLQMTSLRSEDTAMYFCARFYYGNSFDHWGQGTLVTVSS
VL: DIVMTQSPSFLTVTAGEKVTMSCKSSQSLLNSGNQKNYLTWYQQKPGQPPKLLIYWASTRESGVPDRFTGSGSGTDFTLTISSVQAEDLALYYCQNAYSFPLTFGAGTKLELK
B4: 418B8B10 (antibody, V domains shown)
VH: B3 VH with G31S, I37V, T40A, R56S, A61T, Q65K, S118A
VL: B3 VL with F10S, T20S, L30F, S32R, N37S, K45R, L91V, A97N, S99I, F100Y
B5: 201F4H6 (antibody, V domains shown)
VH: QVQLKESGPGLVAPSQSLSITCTVSGFSLTSYGVSWVRQPPGKGLECLGVIWAGGNTNYNSALMSRLSISKDKSKSQVFLKMNSLQTDDTAMYYCARVYYGNAMDYWGQGTSVTVSS
VL: B3 VL with F10S, N37S, K45R, L91V, Y93F, A97V, S99F, L102F, A106S, L112T
B6: 411G12G1 (antibody, V domains shown)
VH: B3 VH with T40A, Q65K, S118A
VL: B3 VL with L91V, A97D
B7: 414H6G2 (antibody, V domains shown)
VH: B3 VH with P41A, S118A
VL: B3 VL
B8: 413B1C9 (antibody, V domains shown)
VH: B3 VH with G31S, I37V, T40A, R56S, Q65K, S118A
VL: B3 VL with F10S, A15T, T20S, L30F, S32R, N37S, L91V, A97N, S99I, F100Y
B9: 407A8G10 (antibody, V domains shown)
VH: B3 VH with Q65K, S118A
VL: B3 VL with K24R, K36R, T78A
B10: 407H12E6 (antibody, V domains shown)
VH: B3 VH with F29V, G31S, I37V, T40A, R56S, Q65K, M93I, S118A
VL: B3 VL with F10S, A15T, P49S, A86T, L91V, Y93F, A97N, S99F
B11: 203A6C9 (antibody, V domains shown)
VH: QVQLKQSGPGLVQPSQSLSITCTVSGFSLTRYGVHWVRQSPGKGLEWLGVIWSGGNTDYNAAFISRLNIRKDNSKSQVFFKMNSLKPNDTAIYYCARAAYFGNSFDYWGQGTTLTVSS
VL: B3 VL with F10S, T12P, E61D, L91V, A97N, S99I, F100Y
B12: 407D8G1 (antibody, V domains shown)
VH: B3 VH
VL: B3 VL
B13: 409D1A7 (antibody, V domains shown)
VH: B3 VH with Q65K, Q82H, S118A
VL: B3 VL with S22N, K36R, K113N
B14: 410D9G2 (antibody, V domains shown)
VH: B3 VH
VL: B3 VL
B15: 407E11H8 (antibody, V domains shown)
VH: B3 VH with G31D, Q65K, A97V, Y101F, S118A
VL: B3 VL with S22T, K24R, S28N, Q35L, Y55S, A86P
B16: 200A4H8 (antibody, V domains shown)
VH: B11 VH
VL: B3 VL with F10S, T12P, E61D, L91V, A97N, S99I, F100Y
B17: 410H6H3 (antibody, V domains shown)
VH: DVLLVESGGGLVQPGGSRKLSCAASGFTFSSSGMHWVRQAPEKGLEWVAYISSGSNTIYYADTLKGRFTISRDNPKNTLFLQMTSLRSEDTAMYYCARIYYGNSFVYWGQGTLVTVSA
VL: B3 VL with F10S, T20I, L52M, T69R, L91V, A97N, S99Y, F100Y, A106T, E111A
B18: 414A5F7 (antibody, V domains shown)
VH: B17 VH with L3Q, S32F, N56S, T57P, L64V, Y95F, V106A
VL: B3 VL with F10S, T20A, S28T, I54L, L91V, S99Y, F100Y, A106S
B19: 409G10G6 (antibody, V domains shown)
VH: B3 VH with G54D, Q65K, A97G, S118A
VL: B3 VL with M21L, K24R, K36R, L89R, A106T, K113R
B20: 406F11G8 (antibody, V domains shown)
VH: B17 VH with L3Q, S32F, N56S, T57P, L64V, P75S, Y95F, V106A
VL: B3 VL with F10S, T20A, S28T, L91V, S99Y, F100Y, A106S
B21: 416F12F3 (antibody, V domains shown)
VH: B17 VH with L3Q, S32F, N56S, D62H, T63S, L64V, R87G, I99F, V106A
VL: B3 VL with F10S, M21L, L52M, L91V, S99T, F100Y, K109R
B22: 411B4G4 (antibody, V domains shown)
VH: B3 VH with M34L, Q65K, S118A
VL: B3 VL with K24R, K36R
B23: 413C12F8 (antibody, V domains shown)
VH: B3 VH with M34V, S52G, Q65K, S118A
VL: B3 VL with S22N, K24R, K45R
B24: 410A9A9 (antibody, V domains shown)
VH: B17 VH with L3Q, S32F, N56S, T57P, L64V, Y95F, R98T, I99F, V106A
VL: B3 VL with F10S, S28T, P46S, L91V, F100Y, L102V, A106S, L110V
B25: 412B6E4 (antibody, V domains shown)
VH: DVQLVESGGGLVQPGGSRKLSCAASGFTFSSFGVHWVRQAPEKGLEWVAYISSGSSTIYYAHSVKGRFTISRDNPKNTLFLQMTSLGSEDTATYYCARFYYGNSFAYWGQGTLVTVSA
VL: B3 VL with F10S, L52M, L91V, S99T, F100Y, K109R
B26: 411G3E10 (antibody, V domains shown)
VH: B3 VH with Q65K, S118A
VL: B3 VL with S22N, K24R
B27: 411A6E3 (antibody, V domains shown)
VH: B3 VH with G31D, Q65K, A97V, Y101F, S118A
VL: B3 VL with S22T, K24R, S28N, Q35L, Y55S, A86P

These binders were tested against human Claudin18.2 (human) (assay: cell-based or functional assay).

Question: Which “CDC % Relative activity” value does the source give for B1 here?
Answer: 136%

Question: What about the “CDC EC50” value of the same binder?
Answer: 1.93 µg/mL

Question: Which “CDC % Relative activity” value does the source give for B2 here?
Answer: 440%

Question: What about the “CDC EC50” value of the same binder?
Answer: 0.392 µg/mL

Question: B3 was tested. Which “CDC % Relative activity” value did it give?
Answer: 125%

Question: And the “CDC EC50” value?
Answer: 2.07 µg/mL

Question: Which “CDC % Relative activity” value does the source give for B4 here?
Answer: 30.8%

Question: What about the “CDC EC50” value of the same binder?
Answer: 5.6 µg/mL

Question: How did the “CDC % Relative activity” value turn out when B5 was run?
Answer: 135%

Question: And the “CDC EC50” value?
Answer: 1.42 µg/mL

Question: With B6 as the binder, how does the “CDC % Relative activity” value read?
Answer: 28.5%

Question: And the “CDC EC50” value?
Answer: 9.56 µg/mL

Question: B7 was tested. Which “CDC % Relative activity” value did it give?
Answer: 678%

Question: What about the “CDC EC50” value of the same binder?
Answer: 0.402 µg/mL

Question: B8 was tested. Which “CDC % Relative activity” value did it give?
Answer: 10.4%

Question: What about the “CDC EC50” value of the same binder?
Answer: 26.3 µg/mL

Question: Which results are given for B9?
Answer: CDC % Relative activity: 23.9%; CDC EC50: 10.9 µg/mL

Question: B10 was tested. Which “CDC % Relative activity” value did it give?
Answer: 143%

Question: What about the “CDC EC50” value of the same binder?
Answer: 1.83 µg/mL

Question: What does the source list for B11?
Answer: CDC % Relative activity: 600%; CDC EC50: 0.319 µg/mL

Question: Which results are given for B12?
Answer: CDC % Relative activity: 849%; CDC EC50: 0.308 µg/mL

Question: Which “CDC % Relative activity” value does the source give for B13 here?
Answer: 33.5%

Question: And the “CDC EC50” value?
Answer: 7.78 µg/mL

Question: B14 was tested. Which “CDC % Relative activity” value did it give?
Answer: 87.9%

Question: What about the “CDC EC50” value of the same binder?
Answer: 2.97 µg/mL

Question: Which “CDC % Relative activity” value does the source give for B15 here?
Answer: 60.4%

Question: And the “CDC EC50” value?
Answer: 4.32 µg/mL

Question: For B16, which “CDC % Relative activity” value is on record?
Answer: 84.5%

Question: And the “CDC EC50” value?
Answer: 2.27 µg/mL

Question: Which “CDC % Relative activity” value does the source give for B17 here?
Answer: 755%

Question: What about the “CDC EC50” value of the same binder?
Answer: 0.346 µg/mL

Question: B18 was tested. Which “CDC % Relative activity” value did it give?
Answer: 594%

Question: What about the “CDC EC50” value of the same binder?
Answer: 0.458 µg/mL

Question: B19 was tested. Which “CDC % Relative activity” value did it give?
Answer: 55.6%

Question: What about the “CDC EC50” value of the same binder?
Answer: 4.7 µg/mL

Question: Which results are given for B20?
Answer: CDC % Relative activity: 101%; CDC EC50: 2.57 µg/mL

Question: B21 was tested. Which “CDC % Relative activity” value did it give?
Answer: 220%

Question: What about the “CDC EC50” value of the same binder?
Answer: 0.784 µg/mL

Question: How did the “CDC % Relative activity” value turn out when B22 was run?
Answer: 68.3%

Question: And the “CDC EC50” value?
Answer: 3.98 µg/mL

Question: How did the “CDC % Relative activity” value turn out when B23 was run?
Answer: 70.9%

Question: And the “CDC EC50” value?
Answer: 3.84 µg/mL

Question: Which “CDC % Relative activity” value does the source give for B24 here?
Answer: 300%

Question: And the “CDC EC50” value?
Answer: 0.872 µg/mL

Question: B25 was tested. Which “CDC % Relative activity” value did it give?
Answer: 577%

Question: What about the “CDC EC50” value of the same binder?
Answer: 0.472 µg/mL

Question: For B26, which “CDC % Relative activity” value is on record?
Answer: 82.2%

Question: What about the “CDC EC50” value of the same binder?
Answer: 3.31 µg/mL

Question: For B27, which “CDC % Relative activity” value is on record?
Answer: 109%

Question: What about the “CDC EC50” value of the same binder?
Answer: 2.5 µg/mL
